Measurements as given in publication PMC11589570, “Critical assessment of LC3/GABARAP ligands used for degrader development and ligandability of LC3/GABARAP binding pockets” (Nature Communications, 2024).

What follows are binders tested against 1_(1-117) (human), Q9H0R8 (assay: FP). Details: modification not given.
Chain of 1_(1-117) (human), Q9H0R8 (Q9H0R8 whole entry): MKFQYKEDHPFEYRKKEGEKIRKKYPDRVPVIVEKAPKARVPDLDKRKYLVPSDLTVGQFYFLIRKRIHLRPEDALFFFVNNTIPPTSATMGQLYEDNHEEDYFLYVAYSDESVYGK

Row | Binder | Ki [µM]
1 | AGLNSSWVELPMNSS [NIX-P2-LIR] | 3.7
2 | LNSGVEYYWDQLNETV [AMBRA1-LIR] | 163
3 | SDNSSGGDDDWTHLSSK [p62-LIR] | 5.5
